According to patent US20120129720, “APTAMER THAT RECOGNIZES PEPTIDE” (KANAGAWA PREFECTURAL HOSPITAL ORGANIZATION, published 2012):

B1: X region SEQ 2343 (ssRNA)
RNA: GGGACGCUCACGUACGCUCACUGUGCUCGGAUUUCAUCCGGGUCCUAUACUUCUACUAUAUCAGUGCCUGGACGUGCAGU
modifications: 3' A20 tail for capture
B2: #707 (ssRNA)
RNA: GGGACGCUCACGUACGCUCACGGUGGAUUGGCGACGAUGACCUUGAUAGUCCUCGUAAUGUCAGUGCCUGGACGUGCAGU
modifications: 3' A20 tail for capture
B3: #719 (ssRNA)
RNA: GGGACGCUCACGUACGCUCAGCUCUCUUACUUCCUGGGUGACUGGCUCUUUCGGGGUAUGUCAGUGCCUGGACGUGCAGU
modifications: 3' A20 tail for capture
B4: X region SEQ 2342 (ssRNA)
RNA: GGGACGCUCACGUACGCUCAUGACAUCUGAGGCUUUUUUCUUGGGGAAUUUUCCGAGACCUCAGUGCCUGGACGUGCAGU
modifications: 3' A20 tail for capture
B5: #725 (ssRNA)
RNA: GGGACGCUCACGUACGCUCACAUGUCCGGGUGGAUUGGAUCGAUUACUUGUUUUCGUUUAUCAGUGCCUGGACGUGCAGU
modifications: 3' A20 tail for capture
B6: X region SEQ 2344 (ssRNA)
RNA: GGGACGCUCACGUACGCUCAGUCCAUUUUCGUCGUGUAAUUUCGGCAACGGUUCCGGGGAUCAGUGCCUGGACGUGCAGU
modifications: 3' A20 tail for capture
B7: #7004 (ssRNA)
RNA: GGGACGCUCACGUACGCUCAGGCGUUCUUCGCUGUAGUUCCGGUUUAUUGGUCUUUGUUUUCAGUGCCUGGACGUGCAGU
modifications: 3' A20 tail for capture
B8: #7008 (ssRNA)
RNA: GGGACGCUCACGUACGCUCAUUGUCUUGGUGUAUUGGUUACUGUCCAAUGGGCGGUGUAUUCAGUGCCUGGACGUGCAGU
modifications: 3' A20 tail for capture
B9: #730 (ssRNA)
RNA: GGGACGCUCACGUACGCUCAUUCGACCGGGUUAUUGGCUGCUCUCCUCUGGUUUGUGAUGUCAGUGCCUGGACGUGCAGU
modifications: 3' A20 tail for capture
B10: #723 (ssRNA)
RNA: GGGACGCUCACGUACGCUCAGGUUAUUGGCGCCCUCGAACCAAAAUGGAUGCCGGGAAUGUCAGUGCCUGGACGUGCAGU
modifications: 3' A20 tail for capture
B11: #7054 (ssRNA)
RNA: GGGACGCUCACGUACGCUCAAAGUGUCUGCAAGUCUACCGGUUUAUUGGCCACUCCGUUUUCAGUGCCUGGACGUGCAGU
modifications: 3' A20 tail for capture
B12: #7007 (ssRNA)
RNA: GGGACGCUCACGUACGCUCAGAGAUCGUUCUGGUUAUUGGCGCCUUCUGAUAAAGGAAUGUCAGUGCCUGGACGUGCAGU
modifications: 3' A20 tail for capture
B13: #708 (ssRNA)
RNA: GGGACGCUCACGUACGCUCACGGUUAUUGGCGGAGGAUCUGUCAUGGCAUGCCUCGACUGUCAGUGCCUGGACGUGCAGU
modifications: 3' A20 tail for capture
B14: X region SEQ 2346 (ssRNA)
RNA: GGGACGCUCACGUACGCUCAUGUUCCGGGCCGACUGGCUGUUAGAGAUCUCUGAUGUAGGUCAGUGCCUGGACGUGCAGU
modifications: 3' A20 tail for capture
B15: #7029 (ssRNA)
RNA: GGGACGCUCACGUACGCUCACGAAAUCCAGGUUUGAUUGGCGUGGCACCCUUGCCAAGUGUCAGUGCCUGGACGUGCAGU
modifications: 3' A20 tail for capture
B16: X region SEQ 2340 (ssRNA)
RNA: GGGACGCUCACGUACGCUCAUGUAUUUCUGUUAGUGCUCGGUCCUGCUGAUCGGUUAGACUCAGUGCCUGGACGUGCAGU
modifications: 3' A20 tail for capture
B17: #7030 (ssRNA)
RNA: GGGACGCUCACGUACGCUCAAUGAGCUCACCUGGGUAAUUGGCGCCAAUUCAAGGGUCUGUCAGUGCCUGGACGUGCAGU
modifications: 3' A20 tail for capture
B18: #748 (ssRNA)
RNA: GGGACGCUCACGUACGCUCAGCGCUUCUCGUUUGCUUUCCGGGUUCAUUGGUCCAUGUUUUCAGUGCCUGGACGUGCAGU
modifications: 3' A20 tail for capture
B19: X region SEQ 2345 (ssRNA)
RNA: GGGACGCUCACGUACGCUCAUAUGUUCGACUUAAUUUGAUCUGCAUGUUUGUCUCCGGGCUCAGUGCCUGGACGUGCAGU
modifications: 3' A20 tail for capture
B20: #7015 (ssRNA)
RNA: GGGACGCUCACGUACGCUCAUGUCUCGGUUUAUUGGCGGUCGGACUUUUGCCCUGCGAUGUCAGUGCCUGGACGUGCAGU
modifications: 3' A20 tail for capture
B21: #7052 (ssRNA)
RNA: GGGACGCUCACGUACGCUCAAUUCUGUUCUGUCUCUCCGGGUUUACUGGCGCUAUGAAUGUCAGUGCCUGGACGUGCAGU
modifications: 3' A20 tail for capture
B22: #7009 (ssRNA)
RNA: GGGACGCUCACGUACGCUCAUGAUUGAAUGGGCGAAUCGACCUUACCGGUUUUCUGCAACUCAGUGCCUGGACGUGCAGU
modifications: 3' A20 tail for capture
B23: #715 (ssRNA)
RNA: GGGACGCUCACGUACGCUCAUAGAGUGUAUUUGUACCAGGUAUACUGGCGCGAACGAAUGUCAGUGCCUGGACGUGCAGU
modifications: 3' A20 tail for capture
B24: #7049 (ssRNA)
RNA: GGGACGCUCACGUACGCUCACGCUCAGGUGAAUUGGUUACGUUUUCUCUGACAAUGUGGAUCAGUGCCUGGACGUGCAGU
modifications: 3' A20 tail for capture
B25: #736 (ssRNA)
RNA: GGGACGCUCACGUACGCUCACCUCAAGUCGGGUCUAUUGUCUCCGGCGAAGCAUGGACUGUCAGUGCCUGGACGUGCAGU
modifications: 3' A20 tail for capture
B26: #7062 (ssRNA)
RNA: GGGACGCUCACGUACGCUCAUCUCGCCGCAUUUCCAGGUUUUUUGGCGCUUAUGAAUGAUCAGUGCCUGGACGUGCAGU
modifications: 3' A20 tail for capture
B27: #701 (ssRNA)
RNA: GGGACGCUCACGUACGCUCACCGGGUUAUUGGCGCAAUAUUGGUAUCCUGUAUUGGUCUGUCAGUGCCUGGACGUGCAGU
modifications: 3' A20 tail for capture
B28: #746 (ssRNA)
RNA: GGGACGCUCACGUACGCUCAGGUGAAUUGGCACUUCUUUAUCUACGGAUCGAGUCGGAUGUCAGUGCCUGGACGUGCAGU
modifications: 3' A20 tail for capture
B29: #718 (ssRNA)
RNA: GGGACGCUCACGUACGCUCACUUCUUUCCCACUCACGUCUCGGUUUUAUUGGUCCAGUUUUCAGUGCCUGGACGUGCAGU
modifications: 3' A20 tail for capture
B30: X region SEQ 2347 (ssRNA)
RNA: GGGACGCUCACGUACGCUCAUUUUUCCUCUUUGCCCUAUGUUUGGGCGACGCAUCCGGGUUCAGUGCCUGGACGUGCAGU
modifications: 3' A20 tail for capture
B31: #7034 (ssRNA)
RNA: GGGACGCUCACGUACGCUCAAAAUGCUGUUGCAGGUUAUUUGGCUCUCGGUCUGAGAAUGUCAGUGCCUGGACGUGCAGU
modifications: 3' A20 tail for capture
B32: X region SEQ 2341 (ssRNA)
RNA: GGGACGCUCACGUACGCUCAUGUCCGCUGUUAAAGAUCGCGACUCUGGGCCCUGAUCGAUUCAGUGCCUGGACGUGCAGU
modifications: 3' A20 tail for capture
B33: #743 (ssRNA)
RNA: GGGACGCUCACGUACGCUCAACACUUGCUUUUUCUUGUCCGGGUUUAUUGGUCGUUGUAUUCAGUGCCUGGACGUGCAGU
modifications: 3' A20 tail for capture
B34: #745 (ssRNA)
RNA: GGGACGCUCACGUACGCUCAGAGCCACGGGUUUACUGGCGCUAAACAAAUGUUUAGGAUGUCAGUGCCUGGACGUGCAGU
modifications: 3' A20 tail for capture

Experiments:
Details in all cases: MIF 115 aa; ATGen
[1] = molecular target: T1, His-MIF (His-tag/T7 gene 10 leader/Xpress-MIF fusion) (UniProt P14174 P14174:1-115); test: SPR; data not shown
T1 chain: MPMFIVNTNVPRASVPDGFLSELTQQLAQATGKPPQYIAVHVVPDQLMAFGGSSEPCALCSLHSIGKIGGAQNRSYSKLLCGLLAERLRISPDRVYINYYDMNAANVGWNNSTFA

[2] = molecular target: T1, His-MIF (His-tag/T7 gene 10 …); test: SPR; 600 nM His-MIF; data not shown
[3] = molecular target: T1, His-MIF (His-tag/T7 gene 10 …); test: SPR; 600 nM His-MIF
Method: A molecular interaction between each of the RNA aptamers and each of fusion proteins, i.e., a binding ability of each of the RNA aptamers to each of the fusion proteins was analyzed using surface plasmon resonance. The analysis of the binding ability was performed using BiacoreX (GE Healthcare UK Ltd.) according to the instruction thereof. Specifically, first, polyadenine having 20 bases was added to the 3′-end of the RNA aptamer. Thus, polyadenine-added RNA aptamer was prepared. This was then heated at 95° C. for 5 minutes and rapidly cooled on ice. Biotinylated polythymine having 20 bases obtained by biotinylating the 5′-end of polythymine had been bound to a streptavidin chip (Sensor chip SA, GE Healthcare UK Ltd.). The polyadenine-added RNA aptamer was introduced into a flow cell on the streptavidin chip using a running buffer. At this stage, the polyadenine-added RNA aptamer was immobilized on the chip via the biotinylated polythymine by complementary binding between poly A of the polyadenine-added RNA aptamer and the biotinylated polythymine. The polyadenine-added RNA aptamer was caused to bind to the biotinylated polythymine until a resonance unit (RU) (resonance unit; 1 RU=1 pg/mm²) reaches 700 RU. Subsequently, HBS (Hepes Buffered Saline) containing the fusion protein with a predetermined concentration was introduced into the chip using a running buffer, and a signal (RU) was measured. The composition of the running buffer includes 10 mmol/L HEPES (4-(2-hydroxyethyl)-1-piperazine ethanesulfonic acid), 150 mmol/L sodium chloride, 0.1 mmol/L magnesium acetate, and 0.01% Tween (registered trademark) 20 (pH 7.2). As a control, an introduction of the fusion protein and a measurement of a signal were performed in the same manner as described above using a chip to which biotinylated polythymine had been bound, on which no polyadenine-added RNA aptamer had been immobilized.
A binding ability of each of the RNA pools in the respective rounds to His-MIF was analyzed by surface plasmon resonance in the same manner as in “1. (4) Molecular interaction analysis” of Example 1. […] N40 (control RNA) also was analyzed in the same manner as mentioned above.

| Binder | binding result [2] | further results |
| --- | --- | --- |
| B1 |  | binding result [1]: binds |
| B2 | binds |  |
| B3 | binds |  |
| B4 |  | binding result [1]: binds |
| B5 | binds |  |
| B6 |  | binding result [1]: binds |
| B7 | binds |  |
| B8 | binds |  |
| B9 | binds |  |
| B10 | binds |  |
| B11 | binds |  |
| B12 | binds |  |
| B13 |  | binding signal [3]: 1.16 His-MIF/RNA bonds |
| B14 |  | binding result [1]: binds |
| B15 | binds |  |
| B16 |  | binding result [1]: binds |
| B17 | binds |  |

| Binder | binding result [2] | further results |
| --- | --- | --- |
| B18 | binds |  |
| B19 |  | binding result [1]: binds |
| B20 | binds |  |
| B21 | binds |  |
| B22 | binds |  |
| B23 | binds |  |
| B24 | binds |  |
| B25 | binds |  |
| B26 | binds |  |
| B27 |  | binding signal [3]: 1.32 His-MIF/RNA bonds |
| B28 |  | binding signal [3]: 0.5 His-MIF/RNA bonds |
| B29 |  | binding signal [3]: 0.75 His-MIF/RNA bonds |
| B30 |  | binding result [1]: binds |
| B31 | binds |  |
| B32 |  | binding result [1]: binds |
| B33 | binds |  |
| B34 | binds |  |
